A short description of this data set: soluble on expression in E. coli; label from the status in PepcDB or PDB records.
On to “MGSDKIHHHHHHMKRILFISPTTSMDNGAEKSIYYLMKHLIQLGHTVINVTHAIGGEPQDKHEQLYKMIGVKNYYLPTVKWWWPDAPGGEILNREEATSYYRQNVQDIAEIIDQNEIDLVISNTVNVFQGAIAASCQKVPHFWLIHEFPKNEFAYYADKIDFIEEYSSELFSVTGELNNFLTPLFNKKVHSFISYTEQETKVLKKGNQVRIVSVGRLTEGKNQLELIKAYKTLNRLDIELVFIGGWDSKYKAICDEYIHENKLQKNVKFLGNLDNPWEEVTDRDICVFPSSMETFGLVYVEAILRGLPVILSDNLGHLTAFEIFSAGQIYKLGDIEELVTKLEQVIESFRNFSDRARLDVERLRTLYTPEVAYKEILNSINHLEYTGHQNTNLSHIKELLTLNMHPTRLERYARLISNMATKIRHKLRL”, for which the “soluble on expression in E. coli” value was “not soluble”.
For “MGSDKIHHHHHHMKRPISQQSVQVALGQAALPVGVLTFNKDGARESSTFAYHEAWLRSADRFEISPDLQLVQGQQFRKAPSRDDSIFPFAFADTEPDGWGCRVIARDHARRRKSAQEKGRDVPHAGLTEMDYLLGVDDLSRIGALRLADEAGNYLRSIEDGGRGTPPLLELGHLIGATRAVEMNRETAADLKYLRGRGTSLGGMRPKCTILDEDGQLAIGKFPSINDDRSVTRGEVLALHLAAAAGITVAQSRIVMSEEIPVALVRRFDRVTNGGRIPYLSAGSMLQASRQEEHAYTQIADCIIARCADPKRDLEELWRRLVFNLLITNVDDHVQNHGFLHVEHGLWRLAPAFDINPFPDKDPELKLWLNEDYGPVDSIEAVMNEARYFRLSADEAKRILGEVRNAVGDWKRVAKSAPVGMTDDDLDAFQPAFENGQTEAAAALL”, the “soluble on expression in E. coli” value is on record as “not soluble”.
Take “MGSDKIHHHHHHMKRVISLIDMDCFYAQVEQRDNPSLWGQPVIVVQHSRQGIEGGILAVSYEARPFGVKRGMTVAEAKLKCPQISICHVPIGEYVDKADIQKYRDASAEVFRVLNNYDSQIIIEKASVDEAFLDLSAYTNQKLQELRENEGLEEFLQAAITYLPTTHLATGEDVKENEHLREDVLLEYIENARNCTENLLLLIAAVTVEQIRQQIHEETQFFCSAGVGNNKMMAKLVCARHKPRQQTLIPWFYVREILRLTPIGDVRGFGGKMGNRIQEMLNITVRKRKYSKFQVIFRIFIEKLSEMSEICNFRRFYTIFKYFSLNLEIWKYSKKNQFFLAKKKEILRFSQLKIRKFEFPVTFYPRNPLMGELLEVDISQLIE”: the “soluble on expression in E. coli” value is “not soluble”.
With “MGSDKIHHHHHHMKSIKAADLHAAVRDMIMDANRVLGKDVYNAFQTCMQQETTDSGKEVLRQLLENADLAAQSGLALCQDTGVAVFFVEMGEEVRMEGGGLKETLNAAMVEAYNKAFLRKSMCHPLTRKNTGDNTPAVIHVELVPGDTLKVRYMAKGGGSENMSRCTMLTPAQGWQGIKDFVVRRMAEAGPNPCPPTIVGVGIGGTFDLAPSLAKGALFRRVDDVHPDPEIAAMEKELLDEINALGIGPMGLGGKTTCLAVKIAMHPCHIASLPLAVNVQCHSSRHKEVVF”, the “soluble on expression in E. coli” value was “not soluble”.
As to “MGSDKIHHHHHHMKSKGSRLSTDCPVEFPKIVSGFAEEVKIRRQSSQGQYAVDSHPPKSPELKHRRQRSSSFVNGKCRNRDLPLLDNKKAQEINTNSHGQDIGIKNLPRQRELLNAKNGIDFTLMVAGQSGLGKTTFINSLFSTSLIDDDIKENKPIIRYKSIVEGDGTHLNFNVIDTPGFGNNMDNAFTWRTMVNYIDEEIRSYIFQEEQPDRTKMVDNRVHCCLYFLRPSNKGIDTLDVVTMKKLAKRVNLIPVIAKSDLLTKEELKNFKTQVREIIRVQDIPVCFFFGDEVLNATQDIFQKYPFSIIASNEYIFNEKGEKVKGRQYKWGAVDIENEKYCDFKILQKTIFDWNLIDLVESTEDYYEKCRSEMLRTRLLKARDCLTTKSVDITEEQRKFLEEEMNFDEIEENKLKNYKCYEIINKTVMDKVATEWDPEFITRQLEAKKKFNELSNREISKFRDWKKSLFMEQENFNQEIEQLNHKLENLQLECQDLEYKLLIGKSSNSHSTDSATLVNVHIKR”, the “soluble on expression in E. coli” value is listed as “not soluble”.
The value for “MGSDKIHHHHHHMKSRFLLKIFIFLAVFGVDSVRAADCTEKTFKTGTVCVCSLDSCDEIPPLDITMGQAALYTTSHTGARLHRDVIYATDTEPFGTLHMTIDSSKKYQTIQGFGSTFSDASGANLKSLPDKLSDLIMKQYFSDTGLNLQFGRVPIASTDFSGRVYSYNDVANDYSMQNFNLTKEDFQWKIPYIKNAQKYNPNLKLFAAPWAAPGWLKTTKEMTGPGALNGKAGDNYHQAYAKYFVRFLEEYGKSGISFWGLSTQNQPTLGSDKKNKIQSTLFTAETQRDFIKTDLGPALAASSSGKDVKLLILDDNRGNLPKWADTVLNDMDAAKYVGGIGVHAYQDGETDNHLDETHKKHPNFFILGTEASEGYGSKDTHVDYGNWDRAADTASDILDNMNNWMTGWTERNLILDALGGPSWVSDYTDAPVIAFPAMAQFYKQPMFYAIAHFSHFIKPGAVRIDHSLNVIELEVETTAFLNPDGSKVIVMLNKGSLVSTEHTVVVQDAADSRNHYHFTLPHRAITTLYIQTSQF” was “not soluble”.
In the case of “MGSDKIHHHHHHMKTFHLTTQSRDEMVDITSQIETWIRETGVTNGVAIVSSLHTTAGITVNENADPDVKRDMIMRLDEVYPWHHENDRHMEGNTAAHLKTSTVGHAQTLIISEGRLVLGTWQGVYFCEFDGPRTNRKFVVKLLTD” it was “soluble”.
The value for “MGSDKIHHHHHHMKTLIKNVHILTMDEQFSEIKAGYLVIEEDTIVELAPMTTLDEKRMAANQVIDGQNGILMPGMINTHTHVGMIPFRSLGDDVPDRLRRFLFPLEQFMTKELVGCSSDYAIAEMLLSGITSFCDMYYFEDEIAKSCEKMSVRALLGETIIDMPTCDSPEPSGGLFYAETFIRKWQGHPLITPMLAPHAPNTNSPEVLAKIIELSRQYQVPVTMHVAEMTYEMAEFEKAYQKTPIAFLEELGYLSEPFILAHCILATDEDLASLAATNGKARVAHCIGANTKSAKGVAPIKQMLDQGIIVGLGTDGPSSGNTLDLFTQMRMVANFHKTAHQDRSLFPAKEIVYLATMGGAKTLGLAEQVGSLEVDKKADITLIETQSVNMFPIFDAYSALVYSANASNVEAVWVNGQQLVANKELQQANLKEIKEKLYQAMNTFVKEAKKRAAL” was “not soluble”; that for “MGSDKIHHHHHHMKTTSPSSYDEMLNADGSVRSAYAGYCKWYDEQPPDLLRRKGSEAEAFFRRTGITFNVYGNEDAEERLIPFDMVPRIITAQQWRKLSRGIEQRVRALNAFLHDLYHRQEIVRSGRLPVRLLKGNEAFLPEMVGFTPPGGVYTHIVGIDLVRTGEDDFMVLEDNARTPSGVSYMLENRETMMAMFPELFTRVRVREVSDYPRRLARSLAACAPPACDGKKPVVAVLTPGIYNSAYFEHAFLADQMGAELVEGSDLRVENGRIAMRTTRGYQPIDVLYRRVDDEYLDPLSFNPGSVLGVSGIMDVYRSGGITIANAPGTGIADDKAIYSFMPEIVEFYTGEKPILQNVPTWRCAEPDALAYVLDNLAELVVKEVHGSGGYGMLIGPTSSRKELAAFEAKLRARPENYIAQPTLSLSTVPILTKAGLAPRHVDLRPFVLVSPNGIDITPGGLTRVALKKGSLVVNSSQGGGTKDSWVLDD” was “not soluble”.
Take “MGSDKIHHHHHHMKTVMLMLTSLLMAGCSVLGKREAAEPPYELLKHDGAFEVRRYGPMVIAETILDEKSYSAASGKGFNRLAGYIFGKNRSKTSISMTAPVLQERSSEKISMTAPVLQQPQKGGWSMAFVLPEGFTLQSAPEPLDPEVKLRELPPSTIAVVTFSGLHSAANLEKYSRQLQAWLKKQGYRALSEPKLASYDPPWTIPFLRRNEVQIRIEPDHGESGKE”: the “soluble on expression in E. coli” value was “not soluble”.
Consider “MGSDKIHHHHHHMKVAYLSSAYLAPVEYYSKLLNYDKIFIEQHDHYMKQTYRNRCTIAGPEGELALSIPIVKPEEPKCPMKDIRISDHGNWRHLHWNAIESAYNSTPFFEYYKDDFRPFYEKKYEFLTDFNEELCRLVCELIDIQPAIERTKEYKTDFAPNEIDFREAIHPKKDFHRTDPEFIPQPYYQVFEARYGFLPNLSIIDLLFNMGPESLLILQKTCADSQ”, for which the “soluble on expression in E. coli” value is on record as “not soluble”.
On to “MGSDKIHHHHHHMKVIIEADGGSRGNPGIAGSGTLIYNADRSQVLKEYSYVVGKATNNVAEYHGLLNGLRGAAELGATEVSVRMDSKLVVEQMSGRWKIKHPDMKELALECKKVASSIGSVSYEWIPRSENSHADALANKAMDALAEGAAVGFLELEEPAAKTDSEEKVVETATSPAVWNGATTQATRFVLLRHGQTAMSAARQYSGRSNPELTSVGLEQARRAAAFIGRRGGIDAIVASPLQRCQQTAHEVSEQLGGMPVRTIDGLIEMDFGQWDGLSFSQAHEADPELHSAWLDDSRTAPPGGESLQQVHRRVKKVREELERKYAGKTIVVVSHVTPIKSILRQALDASASMFHRMHLDLASISVAEFYSDGPTCVRSVNDTHYLYG”, for which the “soluble on expression in E. coli” value is “not soluble”.
The value for “MGSDKIHHHHHHMKVLFTFGGIPHYLNAMLNRLQAKGVEITVVSPKKGNTTIGKGVKMVEGGTYKHLTTPEKKMFYGKSAFPALPEIIAEEKPDIVVVGWPYFLQVFFQPALRKAMKSCNAKLVIREIPFQTPPYGKIKEYFKANPMHDEGMRLLSKGIGFYLRQWITARIRKYCYAQAAGTLNYSTAAYDILPSYGVKKEQIHVTYNSTDTEALLKEKESVLASPSILPPCDRRLLHIGRLVKWKRVDLLIEAFRKVATDYPEAELVIVGDGPELDNLRQQANDLQLADSIRFIGAVYDPKTLGAYMNESSIYVLAGMGGLSINDAMTYGMPVLCAVCDSTERDLVMEGKNGYFFKDGDADSLAGRIREMFESPERCKEMGKESERMIREKINMETVSERYLKAFQEILRLTHLRDSGN” was “not soluble”; that for “MGSDKIHHHHHHMKVVFVSYEVFPFAKVGGLADVAGTLPKYLKKHGVDVTIVMPKHRIVEKNAEKFGYEIKKVAESLSVSHVKTDQKFDIYESVLPGSDVKTYFVANDYYFSAEDVYAGPDLGEQAIFFCAATLDLVKHLDLKPDIVHVNDWQTALIPVYLKTVYRDDPYFSRTATVLTIHNLGYQGVFDPKYLSFAGLPDYVYTIDGLEFYGQLNFLKGGIVFSDVINTVSPTYAEEIQTEEYGEKLDGVLRMRSKDLYGILNGIDYELYNPATDRYIYVNYDVNRLELKWENKVKLQEELGLPVNKETAVAGLISRLVPQKGLDLLVDVMDYLTLFDLQIVVLGTGDEQYENAFRKFQERYPDKVSANIKFDVELAQKIYAGADIFLMPSRYEPCGLGQMFSMRYGTIPVVRYTGGLADTVKEYDPQSMEGTGFGFKKYDSAHLLKAVSKALHFYYREKDHWRRIMTNAMNTDLSWDRSAKEYVDLYKKALAKVGR” was “not soluble”; that for “MGSDKIHHHHHHMKVYLSFDYELYFGAKSGSADACIIEPAKLLLEIAARHAVHLNFFIDSGYLLALEKYSKRYPSVAYEKQQVFKQIRELAAAGHDCQLHIHPHWEDSYYDGNGWKMNTNRYRLDHFPDAQIEQIVQSYYDITKDIAGKAPIAYRAGGWCMPPWNKVSAVFKKLGIWIDSTVYEKGYLQEGQIAFDFRKAPASDQWMFETDPVTEAPFGYFLELPISSISCSPLFFWNLYVRGRLNRSLHAGMGDGLPMAQPGTKKKLLTRYTQQALSCDGYYASLLTEEFYKRKAKGEDTMVVIGHPKAQSKFSVQALDTFISTVKDSAAFARYSDLQKD” was “not soluble”.
The value for “MGSDKIHHHHHHMKWLLFPARIVARTRPNLFSLYRRSVSQYLRPRTIQNLQSMAQTPELKTKLFKPLVWIDCEMTGLDHVNDRIIEICCIITDGHLAPVKAADGQGDSHYESVIHYGPEVMNKMNEWCIEHHGNSGLTAKVLASEKTLAQVEDELLEYIQRYIPDKNVGVLAGNSVHMDRLFMVREFPKVIDHLFYRIVDVSSIMEVARRHNPALQARNPKKEAAHTAYSDIKESIAQLQWYMDNYLKPPQETESVESIGSEQPESPSSSTSSLKRQRTDF” was “not soluble”.
